Measurements reported in patent US20040202655A1.

Assays:
[1] = target: IGF1R extracellular domain (human) (UniProt P08069); experiment: SPR (BIAcore), IgG captured on protein A, IGF1R extracellular domain in flow
[2] = target: IGF1R extracellular domain (human) (UniProt P08069); experiment: SPR (BIAcore), IgG captured on mouse anti-human IgG, IGF1R extracellular domain in flow

| Kd [1] [nM] | Kd [2] [nM] | Binder |
| --- | --- | --- |
| 0.24 | 0.138 | PINT-9A2 IgG (antibody, V domains shown) VH: QVQLVQSGAEVRKPGASVKVSCKTSGYTFRNYDINWVRQAPGQGLEWMGRISGHYGNTDHAQKFQGRFTMTKDTSTSTAYMELRSLTFDDTAVYYCARSQWNVDYWGRGTLVTVSS VL: LNFMLTQPHSVSESPGKTVTISCTRSSGSIASNYVQWYQQRPGSSPTTVIFEDNRRPSGVPDRFSGSIDTSSNSASLTISGLKTEDEADYYCQSFDSTNLVVFGGGTKVTVLG |
| 0.109 | 0.503 | PINT-8A1 IgG (antibody, V domains shown) VH: EVQLVQSGAEVKKPGESLTISCKGPGYNFFNYWIGWVRQMPGKGLEWMGIIYPTDSDTRYSPSFQGQVTISVDKSISTAYLQWSSLKASDTAMYYCARSIRYCPGGRCYSGYYGMDVWGQGTMVTVSS VL: SELTQDPAVSVALGQTVRITCQGDSLRSYYASWYQQKPGQAPVLVIYGKNNRPSGIPDRFSGSSSGNTASLTITGAQAEDEADYYCNSRDSSGNHVVFGGGTKLTVLG |
